Measurements taken from paper PMC9943664.

System: MBP-DDX3X (human)
Test: EMSA
Details: DDX3X EMSA: 40 mM Tris-Cl pH 8, 50 mM NaCl, 0.5 mM MgCl2, 2 mM DTT, 0.01% NP40, 2 mM AMP-PNP/MgCl2, 37 C 30 min, UV 254 nm 3 min, 6% native PAGE in 0.5x TB + …

Row | Substance | Kd (native post-transcriptional modifications (not listed)) | Kd (none (unmodified))
1 | endogenous tRNA-LysUUU/CUU | 83.4 nM | 
2 | synthetic tRNA-LysUUU |  | 431 nM
